What was measured:
Conditions in all cases: both partners purified
Asf1 (1–154) [1] = biological target: T1, Asf1 (1–154) (D. melanogaster, UniProt Q9V464 1-154); experiment: ITC; MicroCal VP-ITC, 25 °C, 20 mM HEPES pH 7.5, 150 mM NaCl; typically 100 μM Hairless in the syringe and 10 μM Asf1 in the cell; one-site binding model
T1 construct: Anti-silencing factor 1 (Asf1), D. melanogaster, amino acids 1-154; modified pET-14p construct
T1 sequence (looked up): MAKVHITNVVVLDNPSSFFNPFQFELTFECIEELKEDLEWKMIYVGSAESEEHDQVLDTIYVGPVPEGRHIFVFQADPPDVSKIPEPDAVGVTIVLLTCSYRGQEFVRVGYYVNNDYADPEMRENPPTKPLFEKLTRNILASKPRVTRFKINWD

[2] = biological target: T2, Asf1-HA-MBP (full-length Drosophila Asf1) (Drosophila melanogaster, UniProt Q9V464 1-218); experiment: co-IP; Myc-trap: purified Asf1-HA-MBP or Su(H)-GST mixed 1:1 with NTCTmyc-MBP peptides, about 10 min at 4 °C, 150 mM NaCl, 50 mM Tris pH7.5, 0.1% SDS; Myc-tagged H peptides trapped on anti-Myc nanobody magnetic beads 1 h at 4 °C; Western blot with anti-Myc, anti-HA, anti-GST
T2 construct: Anti-silencing factor 1 (Asf1), Drosophila melanogaster, full length; HA-tagged region derived by PCR from the pJG4-5 construct; also called Asf-HA; HA-tagged Asf1; source: E. coli UT580, purified (amylose beads); not shown: HA, N-terminal, kept
T2 sequence (looked up): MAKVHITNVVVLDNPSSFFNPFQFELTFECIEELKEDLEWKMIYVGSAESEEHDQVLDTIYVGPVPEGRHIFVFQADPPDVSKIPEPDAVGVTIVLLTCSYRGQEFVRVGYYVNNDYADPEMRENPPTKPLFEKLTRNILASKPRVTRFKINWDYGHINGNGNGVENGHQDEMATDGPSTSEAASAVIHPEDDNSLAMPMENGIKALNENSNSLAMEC

Asf1 (1–154) [3] = biological target: T1, Asf1 (1–154); experiment: ITC; MicroCal VP-ITC, 25 °C, 20 mM HEPES pH 7.5, 150 mM NaCl; typically 100 μM Hairless in the syringe and 10 μM Asf1 in the cell; one-site binding model; remark: listed apart in the source
[4] = biological target: T3, Su(H)-GST fusion protein (Su(H) codons 288–594) (Drosophila melanogaster, UniProt P28159 288-594); experiment: co-IP; Myc-trap: purified Asf1-HA-MBP or Su(H)-GST mixed 1:1 with NTCTmyc-MBP peptides, about 10 min at 4 °C, 150 mM NaCl, 50 mM Tris pH7.5, 0.1% SDS; Myc-tagged H peptides trapped on anti-Myc nanobody magnetic beads 1 h at 4 °C; Western blot with anti-Myc, anti-HA, anti-GST
T3 construct: also called GST Su(H); GST-tagged Su(H); source: E. coli UT580, purified (glutathione-sepharose 4B)
T3 sequence (P28159 288-594): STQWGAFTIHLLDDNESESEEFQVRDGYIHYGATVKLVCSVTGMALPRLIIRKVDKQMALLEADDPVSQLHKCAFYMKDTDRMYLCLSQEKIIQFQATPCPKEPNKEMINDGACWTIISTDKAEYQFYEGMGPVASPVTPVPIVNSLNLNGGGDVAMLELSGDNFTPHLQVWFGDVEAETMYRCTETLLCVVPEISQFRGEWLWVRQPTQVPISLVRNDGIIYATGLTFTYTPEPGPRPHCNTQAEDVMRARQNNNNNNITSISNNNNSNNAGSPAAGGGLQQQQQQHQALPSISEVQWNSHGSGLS

B1: H (315–358) (domain or fragment, Drosophila melanogaster, UniProt Q02308 315-358, looked up)
chain: PWKQSRPRRGISKELSLFFHRPRNSTLGRAALRTAARKRRRPHE
notes: Hairless (H), Drosophila, residues 315-358; His-SUMO fusion from a modified pET-28b+ vector; also called Hairless 315–358
Q: With B1 as the binder, how does the Ka (Asf1 (1–154) [1]) read?
A: 680000 M⁻¹

Q: And the Kd (Asf1 (1–154) [1])?
A: 1700 nM

Q: And the dH (Asf1 (1–154) [1])?
A: -8.7 kcal/mol

B2: Hairless 315–369 myc-MBP (domain or fragment, Drosophila melanogaster, UniProt Q02308 315-369, looked up)
chain: PWKQSRPRRGISKELSLFFHRPRNSTLGRAALRTAARKRRRPHEPLTTSEDQQPI
notes: Hairless (H), Drosophila melanogaster, residues 315-369; also called aa 315–369; source: E. coli UT580, purified (amylose beads); not shown: Myc, N-terminal, kept
Q: Does B2 bind [2]?
A: binds

B3: H (232–358) (domain or fragment, Drosophila melanogaster, UniProt Q02308 232-358, looked up)
chain: GGRLQFFKDGKFILELARSKDGDKSGWVSVTRKTFRPPSAATSATVTPTSAVTTAYPKNENSTSLSFSDDNSSIQSSPWQRDQPWKQSRPRRGISKELSLFFHRPRNSTLGRAALRTAARKRRRPHE
notes: Hairless (H), Drosophila, residues 232-358; His-SUMO fusion from a modified pET-28b+ vector; also called Hairless 232–358
Q: How did the Ka (Asf1 (1–154) [1]) turn out when B3 was run?
A: 250000 M⁻¹

Q: And the Kd (Asf1 (1–154) [1])?
A: 4200 nM

Q: What about the dH (Asf1 (1–154) [1]) of the same binder?
A: -8.6 kcal/mol

Q: What about the “stoichiometry N” value (Asf1 (1–154) [3]) of the same binder?
A: 1

B4: NTCTmyc-MBP (Hairless Ser 212 - Ile 369) (domain or fragment, Drosophila melanogaster, UniProt Q02308 212-369, looked up)
chain: SFDMGRTPISTHGNNSWGGYGGRLQFFKDGKFILELARSKDGDKSGWVSVTRKTFRPPSAATSATVTPTSAVTTAYPKNENSTSLSFSDDNSSIQSSPWQRDQPWKQSRPRRGISKELSLFFHRPRNSTLGRAALRTAARKRRRPHEPLTTSEDQQPI
notes: Hairless (H), Drosophila melanogaster, NTCT region Ser 212 - Ile 369; source: E. coli UT580, purified (amylose beads); not shown: Myc, N-terminal, kept
Q: Does B4 bind [4]?
A: binds

Q: Does B4 bind [2]?
A: binds

Reference: paper PMC9858708, “Genetic and Molecular Interactions between H^ΔCT, a Novel Allele of the Notch Antagonist Hairless, and the Histone Chaperone Asf1 in Drosophila melanogaster” (Genes, 2023)
